The target in one data set is T1, Ycdc (Escherichia coli, UniProt P0ACU2).
T1 construct: gene rutR
T1 sequence (P0ACU2 1-212): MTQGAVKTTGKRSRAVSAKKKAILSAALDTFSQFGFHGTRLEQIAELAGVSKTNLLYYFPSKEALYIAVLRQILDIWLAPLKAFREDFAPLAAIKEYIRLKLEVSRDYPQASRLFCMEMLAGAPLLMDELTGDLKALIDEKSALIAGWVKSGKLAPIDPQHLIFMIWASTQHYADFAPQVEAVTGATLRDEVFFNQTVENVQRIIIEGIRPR
The data set is described as follows: incubation with bio-c-di-GMP (Supplementary Fig. S4b). The data set is classed as binding.

The target of data set [1] is T2, EthR (Mycobacterium tuberculosis H37Rv, UniProt P9WMC1 1-216). The data set is described as follows: BLI; no c-di-GMP. Conditions: protein: recombinant; tags: 6xHis (E. coli, pET28a) or GST (yeast); chain copies: 2; label: biotin on second strand (Ms6440pr). Background: BLI is a label-free optical method that tracks binding on a fibre tip over time.
For data set [2], the target named is T2, EthR. The data set is described as follows: BLI; 50 uM c-di-GMP. Conditions: protein: recombinant; tags: 6xHis (E. coli, pET28a) or GST (yeast); chain copies: 2; label: biotin on second strand (Ms6440pr).

T2 sequence (P9WMC1 whole entry): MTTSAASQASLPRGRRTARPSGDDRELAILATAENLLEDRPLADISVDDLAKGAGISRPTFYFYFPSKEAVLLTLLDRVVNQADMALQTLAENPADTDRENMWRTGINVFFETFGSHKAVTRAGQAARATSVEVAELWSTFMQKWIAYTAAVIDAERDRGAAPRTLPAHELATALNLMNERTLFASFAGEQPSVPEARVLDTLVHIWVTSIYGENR

Turning to `Nc1nc2c(ncn2[C@@H]2O[C@@H]3COP(=O)(O)O[C@H]4[C@@H](O)[C@H](n5cnc6c(=O)[nH]c(N)nc65)O[C@@H]4COP(=O)(O)O[C@H]3[C@H]2O)c(=O)[nH]1` [c-di-GMP], on Ycdc, the “incubation with bio-c-di-GMP (Supplementary Fig. S4b)” value is “we incubated Escherichia coli Ycdc with bio-c-di-GMP, the result clearly showed that they bind each other”.

B1: etha promoter DNA (dsDNA)
DNA 1: CGGTCATGGATCCACGCTATCAACGTAATGTCGAGGCCGTCAACGAGATGTCGACACTATCGA
DNA 2: CTGACTGGCCGCGGAGGTGGTCACCCTGGCAGCTTACTACGTGTCGATAGATGTCGACATCTCGTTGACGG
For the molecule B1, the Kd – broadly, a measure of binding affinity in units of concentration – worked out at 1340 nM with EthR [1] and 1120 nM in the data set with EthR [2].

For the origin of these results see article PMC5517500, “Cyclic di-GMP regulates Mycobacterium tuberculosis resistance to ethionamide” (Scientific Reports, 2017).
